Data reported in the DeepSol protein solubility set.

Experiment: soluble on expression in E. coli; label from the status in PepcDB or PDB records

MNIQLSPLEARVIGCLIEKEVTTPDHYPLTLNSLTTACNQKSNREPVLNLSEAEVQDTVEGLIARRLVSDESSFNSRTSKYQHRFCNTEFGDLKLNQQELGLICCLLLRGAQTPGELRTRTNRLCTFTDVKETEAVLERLANRDSGALVVKLPREPGKRESRYHHLFCGEVDMAA
soluble on expression in E. coli: soluble

ISFEINGIKITTYPPPFRIFLEIDNKQEFEKLDRIRKNVDVVVLGFPVGHYDLDEVKNKVKQLVDYGYVVGIDAESPRELKEGVRAGASFVFNLNENNFEELEEIRKEAAFVVAPFNTENRGEITIDLVKKAKQKGFDKLIADPVLSPPLRGLVSSIIGYKYVRETLQDIPILMGILNVTELIDADSIGMNALLTAIAGELGISNLLIMEKGKTRWSSWEVSQATKMISVALKENRLPKDIGIDLLVLKDKRRFRESFNADVIVNRRIEPEMDNTGFAKIFVSEDGFGVEWIGKNKITIKGKDGLSIGRELIRRVKDISKEHAVYIGYELAKAEIAYQLDKNYIQDKPLF
soluble on expression in E. coli: not soluble

MIGGGIGISFRNEFFNPQTPVNIPVQGFSNGARLRLVLLPTSADSRFHINLRTPDDIVLHFNARFDEGAVVNNSTSGGGWQSEDRHANPFQQNKIYTLEFVSNGGIISIFVNGAHFADFVERTPSHGVHLIEIEGGVHVHSAHVSH
soluble on expression in E. coli: soluble

MSLNSIQHIRKAEIHVHLEATIGPDLCRKFAKRNKVTLTDDIFGSQYAYAWDDFYDFIKKYDLVTSVIHTPEDYRELTYSYLKECAKNNVLYVEAMISSTHAKLKGMSYHSFLEGVAEGSKQAEDEFGIISKYIMNGIRHLGPESVQKTAEEVLEFPHKDLVGFGLAGDELHFPPKLFTKTFDMLKEANFPITVHAGEWDGPENIRHAINLLHPTRLGHGVRSIEDPDLVKEIIDKDIILETCPTSNIATKIYEDYKSHPVKTLFDQGVKVTVNSDDPPFFNATIQGEYKVMEDLGLNEKELTSLTHNAIKYSFCDEENKNELLAKLNEGHHHHHH
soluble on expression in E. coli: soluble

FVAHSSGQEVKLDKAPIDRADKESLQRGAKGFVEYCLTCHGANFMRFNRHHDIGMSEDDIRADLIHTGQKTGDLMEAAMRKKEAEGWFGVVPPDLSVIARARGADWLYTYLRTFYQDTSTYSGWNNLIFDKVAMPHVLHHLQGWQVLEPGTGNLVQTKPGTMTKEEYDRFVADLVNYMVYLGEP
soluble on expression in E. coli: not soluble

MGSDKIHHHHHHMKAILIDDDQPTLFILNKMLAKIPRVEIVGEFLNAGDAYHFLKHNPVELAFVDIKMPGESGLDFAWRSLAEFPDLYVVFLTAYKDYAVEAFEVQAFDYIVKPIQQERLERTVSRVLQRKAAGISSRNTVEQAKVLFVYCLGGLDLRNTNDDFVMISSSKGQELFAYLLVHRERLTSKWRIMEDVFQGMSPQNAETYLNTTVYKLRKVLEQYGKRSAIVVASESYVMEIKDFYIDFIEFENKVRTLPSITEANLQEAIQTFHLFAGELFGDKDYQWSLAEKERLGDIYCSFAKKLGRYLLENQNSALALQVFKKLVAINELDEESHCFLLQVYAAQNDLPSLIRHYDRYVQLLQRELAISPSNRTAQLFLSLKKSLL
soluble on expression in E. coli: not soluble

VQFQEYVFLQFLGLDKAPSPQKFQPVPYILKKIFQDREAAATTGVSRDLCYVKELGVRGNVLRFLPDQGFFLYPKKISQASSCLQKLLYFNLSAIKEREQLTLAQLGLDLGPNSYYNLGPELELALFLVQEPHVWGQTTPKPGKMFVLRSVPWPQGAVHFNLLDVAKDWNDNPRKNFGLFLEILVKEDRDSGVNFQPEDTCARLRCSLHASLLVVTLNPDQCHPSRKRRAAIPVPKLSCKNLCHRHQLFINFRDLGWHKWIIAPKGFMANYCHGECPFSLTISLNSSNYAFMQALMHAVDPEIPQAVCIPTKLSPISMLYQDNNDNVILRHYEDMVVDECGCG
soluble on expression in E. coli: soluble

MADDPLYLDRTGEWAGLWWLPEIPDEKVPGFLRYDAECGLLLSLIGAFEDRVTSNPSPGVTAYHEGTRTWEVIHGVAEQREITLFDTIPISSKRTIGARVESPAKQTVTASVAIIGAHVRSEGDPQFAGVEVSVEDLGRWAGSSVFEGLLGAPDGNFDGTGSISVKPVEAQSVLVGGTEYRLVHTHTLPYFDQRKSETVGRMRDTVSIRIVPASPFSLNAALHEASLVQDLISLATHQSAGVIWLRVEVARSESQLPDGRTSPRRRADVLYSPVALGKHDAKPVDHHRMFFTCNSLPFEEVLPRWCETHVRLQAATNMILGLRYAPARFVENNLLTAVGAAEALHRNLRIGEKPFSKAEFTAMRGAMLDQVPSEHRERFKAAIRNDPTLRDRLHALAARPDEEAIGQLIPDVDYWAKRTTRARNDLAHEGRTPNHSFEELVAIVEVTTAVVILNVLQELGLSAERQREIVLTHPKLRHTVGLSREWLVPSKSD
soluble on expression in E. coli: not soluble

MGSDKIHHHHHHMNAGLDGLLLLRAPNLAYATGLFLSANERPMGVWLPMDGDPILMLPGLERENAKGTGLTDLRFYDEFPGKEPPVLWMLDQIGRKHIGIDALDAALLDAARDKAVRIDLTDHAMAARTIKEPEEIALTVEAASFADLFLTRLHAAAGDIINQGGTEADLMADAMAHARGALMAKHKQAFSGTPMGITASVHSGPRAALPHGAVLERVPQPGETLIAGIGASLGGYHAESGVTLIVGSISAEQRQIMAAMKACNDAGVAACGARTTCTQANDAALDALRAAGLGDTIRHRIGHGMGLEGHEDPWLAPGDPTPIQTHMIFSNEPGVYRPGIDGYRTINTMIVTEDGVDIPSRFQANTPIDARVIAL
soluble on expression in E. coli: not soluble

MFEGKLVRLRAYRKEDIEKALEFANDPEVKKCLVPGIPFPWRKEDEEKWYQSLNPFSTDSYSFAIEKLSDGEYIGGCSINKIDWKNSVAEVGIFLGRPYWSQGYGTDAMRVLVRFIFNEMNMNKIKLHVFSFNERAKRVYEKIGFKVEGILRQELFREGRYHDVIVMGLLKSEWEDLTETDL
soluble on expression in E. coli: soluble

MGSDKIHHHHHHMTTDSSNNRTISSKSTLSSKSIINVGPFTPHIEFIGQQQTPVIIIDDFGADLSQLIDIAIDDSQFNQDQGSYYPGQRAPLPKQYVIDVINAVYQLIYDTYKVPHSLRLKPQQCVFSVIDKPAQRLLPLQCMPHFDTPDPHYFAILHYLNNGDHGDTGFFRHNTTQYEQISPHNIDHYFNQAQPVVDAQQTLMPDYVVDSNDHYTLYHQVHYRPNRLVIYPGNLLHSTLVNPVTDIDSSPKTGRLTANIFINFK
soluble on expression in E. coli: not soluble

APSYRVKRADIATCTEAAVVNAANARGTVGDGVCRAVAKKWPSAFKGAATPVGTIKTVMCGSYPVIHAVAPNFSATTEAEGDRELAAVYRAVAAEVNRLSLSSVAIPLLSTGVFSGGRDRLQQSLNHLFTAMDATDADVTIYCRDKSWEKKIQEAIDMRTAVELLNDDVELTTDLVRVHPDSSLVGRKGYSTTDGSLYSYFEGTKFNQAAIDMAEILTLWPRLQEANERICLYALGETMDNIGSKCPVNDSDSSTPPRTVPCLCRYAMTAERIARLRSHQVKSMVVCSSFPLPKYHVDGVQKVKCEKVLLFDPTVPSVVSPRKYAASTTDHSDRSLRGFDLDWTTDSSSTASDTMSLPSLQSCDIDSIYEPMAPIVVTADVHPEPAGIADLAADVHPEPADHVDLENPIPPPRPKRAAYLASRAAERPVPAPRKPTPAPRTAFRNKLPLTFGDFDEHEVDALASGITFGDFDDVLRLGRAGA
soluble on expression in E. coli: not soluble

MGSDKIHHHHHHMRRQANSPSPDPVSTTRPVAWRPTLAKQKGETKHSALTERIIADIDAGVLKPMDRMPTHRDLARELGLSVQTVSLSYKEAERLGYLSGEIGRGTFVKTRVTERAGRMMLDHSPTEVLDLSIIRGVYLDDHENASRTILREMADSDNSGFMRPCRPVAGLDSHRETARTWLGMMGVTAGAERILVTNGAAHGIFLALSCIIRSNDVVLCENLTDHGIIGLSNILGFSLKGLPTDEEGILPDALEAACAAGGVRALVLIPTLNNPTGHVSGAARRQAIATIAERYGIFIIEDEVYRPMIEDDLPSITEMLPDLGFFVTSFTKTVLTGLRVGYLVVPPAYSIRAASILRVSSWSGTYLTAEIATRWVENGTARRLLDVQRTEARARQKIAVDILGDHIGSTHPLSFCAWLTVPPRWTEDGLVRALTNQNVAVTPSEPFIAGPGHGGGIRICLGGRLNHASLARALTTVRQTFEQLPPVYDIGSIG
soluble on expression in E. coli: not soluble

MDFLEKVLDNQVTESKELVRLYDYDLYTLGEVADRMRQNMHQKIVYFNVNRHLNPSNICADACKFCAFSAHRKNPNPYEMSLEEILEKVKNSYNKGIKEVHIVSAHNPNYSYEWYLKVFETIKQEMPNLHLKAMTAAEVHFLSVKFNKPFELVLEDMLKAGVDSMPGGGAEIFDEEIRRKICNGKVGSSRWLEIHAYWHKLGKMSNATMLFGHIENKIHRIDHMLRIKKIQSPKNQVENKEGGFNAFIPLLYQKENNYLNVEKSPSAIEILKTIAISRILLNNIPHIKAYWATLGLNLALVAQEFGANDLDGTIEIESIQSAAGAKSRHGLEKEDLIFKIKDAGFVAVERDSLYNFIQKF
soluble on expression in E. coli: not soluble

MMTKNAYAFVVIEESVMVFKRTKDEGLMPIFEGFVPLKEGFLKSFKERCNLEFLENLDLLFLYDKPSAHEIFSLCKELKNSIWDRKLVVALVEALEGFKDWNLSLKIEDKRSNSLGNGTKKLLTNADLGSDYKTIVIDSMKTYHQSQQEKYKRERGETLEVRPTTPPSYGGGSIRISGDKKPDFDEENF
soluble on expression in E. coli: not soluble

MAHHHHHHMTGSNGNDEPFKREMRTVKVPHHRFPALKKVWMDVYTPIVEQCKLEIRMNLRGRSVELRTCPATVEAAGNEGSKALLQKAEDFVKAVVAGFDVKDAVALLRMDDVYIEGFEVKDVRANLQGDNLSRCIGRMSGSHGKTKHTIENVTRTRIVIADTHICIMGTTQNIRVARDALCDLIRGSPATKVYTRVRAVMNRVNDTF
soluble on expression in E. coli: soluble

PIAQIHILEGRSDEQKETLIREVSEAISRSLDAPLTSVRVIITEMAKGHFGIGGELASKVRR
soluble on expression in E. coli: soluble

MGSDKIHHHHHHMLLLEVKNVSKSYGDTEVLKNVSFELNEGDVMGVLGRSGAGKSVLLHMLRGMEGYEPTSGQIIYHVAYCPHCENVEAPSQVGKKCECETEYVAKSVDFWNNNEITYALKKKIAIMLQRTFALYGEKTVAENIMEALTAAGYEGKDATEWALNLIKMVKLEHRVAHISRDLSGGEKQRVVLARQIAKNPVIFLADEPTGTLDPKTAKFVHNALTEAVIKHNIAMVITSHWPEVIEELCQKAIWLDKGEMRLVGESKHVVEEFMKTVTSMKEFEKVEVKDELLKLENVEKRYVSVDRGIVKAVDGIDVSINEKEIFGLVGVSGAGKTTLSKIIAAVIPPSKGNYEFRLADEWVDMTKVGPLYRGRAKRYIGMLFQEYSLYPHRTILYNLTESIGLEMPGEFAKMKAEHTLVSVGFTEEEAENMLEKHPSELSVGEKHRVALAQVLIREPHLILLDEPTGTMDPITRNQVAESIQKSRSELDQTYVIVSHDMDFVLNVCDRAALVRGGKIIKTGKPDEIVKILSEEEKDEMIGH
soluble on expression in E. coli: not soluble

MGSDKIHHHHHHMANVIKLHKGLNINLKGKPAQEFFDVKQPDIYAIVPDDFHGVTPKVVVKEQEYVTAGGTLFVDKNHPEVKFVSPVSGVVTSVERGERRKVLSISIAAAKEQDYEEFGKKDVSTLTGEQVKAALLEAGLFSFIIQRPYIVVADPNAKPKGIFVSAFDTNPLAADFEFVLKGQEKDFQTGLDALAKMAKTYLNISVEQKSPALTNAKNVTVTAFDGPNPAGNVGVQINHISPINKGETVWTLRAEEVIFIGRLFNTGRVDLTRTIALTGSEVKKPAYCKLKVGALLTDIFAGRVNGGKNLRYINGNVLTGTLVKPNGFLGAHATSLTVIPEGDDRHEFLGFIMPRTDQYSANRSYFSWLCGNKEYTLDARIKGGERHMIMSGEYDKVFPMSIFPEYLIKAIIAGDIDRMEALGIYEVAPEDFAVCEFVDSSKLELQRIVRQGLDMLRKEMC
soluble on expression in E. coli: not soluble
